# B1: TPR t1 (parent)
# chain: GACCAAUCUGCCCUCAGAGCUCGAGAACAUCUUCGGAUGCAGAGGAGGCAGGCUUCGGUGGCGCGAUAGCGCCAACGUCCUCAACCUCCAAUGCAUCCCACCACAUGAUGAUGCCUGAAGAGCCUUGGUUUUUUG
# Variants of: B1
# Experiment: polymerase ribozyme fitness, log enrichment relative to wild type (log ratio); higher = more active; in vitro selection for triplet polymerase activity
# Procedure, shortened: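 Input and output libraries were sequenced on Illumina after a single in vitro selection round, run in triplicate on PCR-built, transcribed mutant libraries of each subunit of a heterodimeric triplet polymerase ribozyme. Selection annealed libraries to a biotinylated primer, the partner subunit and triplets, incubated them frozen at −7 °C, then gel-excised extended constructs for streptavidin-bead capture and RT-PCR. Genotypes with ≥10 input reads and ≥1 read per output were kept. Fitness is the logarithm, taken in base 2, of genotype enrichment divided by wild-type enrichment, using inverse-variance-weighted replicate averages.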
row,Variant,polymerase ribozyme fitness (log ratio)
1,G44U C53G G60A A121C,0.687
2,G44A U92G,-3.27
3,G44C U116C C124A,-0.551
4,G44C U92C C124A,0.556
5,G44U C114U U132A,-2.69
6,G45A C53G A83G G117A,-3.23
7,G44A G51U A121G,-3.43
8,G44U A90U,-2.78
9,G45A U55G G77A,-1.78
10,G45C C76G U125G,-1.06
11,G44U C64U C102A,-2.68
12,G45C C73U G117A G135U,-4
13,G45C C56U,-1.86
14,G45C C56A,-1.46
15,G45A C73U G93C,-1.34
16,G45A C56U A90U,-1.57
17,G45A U106C,-1.09
18,G44U G48U,-2.5
19,G45A G48U C49A C53U G69C C115G,-4.6
20,G44U G63C C79U U112A,0.269
21,G44A G48C G60U,-0.957
22,G44U G60C U87G,-2.16
23,G44C C97G U112A,-4.06
24,G45C A75G U96A G113C,-2.91

row,Variant,polymerase ribozyme fitness (log ratio)
1,G44C G63A C86A,-3.09
2,G44A C72G A119G U125C,-2.76
3,G45A G71U,-0.591
4,G45A G71C,-1.76
5,G44U C64U,-1.48
6,G44C U55A A103U U130A,-5.8
7,G45C C79A,-2.14
8,G44C C88A U109A,-5.8
9,G45A C86A,-1.9
10,G45A A50G C62U,-0.502
11,G44U U54C G113C,-3.08
12,G45A G71C C101A C115U G127C,-5.44
13,G44U,-1.16
14,G44C,-0.805
15,G44A C72G U96G,-2.52
16,G44A C99A C114A,-5.96
17,G45A G48U U112G,-2.7
18,G45A C88U,-0.289
19,G45C A50C,-0.909
20,G44C C72U A75C U92G,-2.94
21,G44C C70G A119U,-5.47
22,G45A G69U,1.63
23,G45A G51A C79G C82U C86U U112A C115A,-7.28
24,G44A G48U U125G,-2.23

row,Variant,polymerase ribozyme fitness (log ratio)
1,G44U U55A A68U G69U C86G G120U,-7.36
2,G44U C82A C97A A121U,-3.17
3,G45A C104U,-0.463
4,G44A G63U,-1.78
5,G44U U112G,-1.6
6,G44U U112C,0.722
7,G44A G48C C102U C124A,-1.74
8,G44A G71A U87G A90C G135U,-2.38
9,G44A C79A U125A,-3.2
10,G44C A46U G58A G63U G117A U130G,-6.42
11,G44C U106C G135C,-1.28
12,G45C A84G,-1.49
13,G44U G47U C49G,-5.36
14,G45C A46U C72G,-2.36
15,G45A C72U,-0.796
16,G44A G69C C89U A118U C124G G127C,-0.292
17,G45C C72U C85G,-3.66
18,G44C C88G G117A C123G,-2.7
19,G44U G71A,-2.39
20,G44U C73A C102A,-2.29
21,G44C G58A A91G U92C,-3.08
22,G44U G57U C89U C104U,-1.47
23,G44A U55A C70U C85G G113A,-4.29
24,G44C U116G C124G,-3.04

row,Variant,polymerase ribozyme fitness (log ratio)
1,G44A U78A G93U,-1.85
2,G45A A83C A84U A100G G122U C123G,-5.96
3,G45C C62A A83G A84U,-3.77
4,G45A C62U U96G,-1.28
5,G44C G47U U81A,-4.12
6,G44U C56U,-0.616
7,G45A C72A U92G,-2.71
8,G45C A50C A121C,0.0664
9,G44U C72G U78G C82G,-2.66
10,G45A G71U A84G,-2.48
11,G44A C101G U133C,-2.92
12,G44U C88A U133G,-1.73
13,G44A G51U A68G A121G,-5.63
14,G45A C56U,-0.103
15,G44U G58C G113A,-1.31
16,G44C G47A C73G,-2.76
17,G44U A46U,-1.83
18,G44A G57U C85U C104A U109A G120C,-4.62
19,G45A C49A G117A,-2.04
20,G44C C64U,-0.652
21,G44C C80A G110U C124A,-6.53
22,G44C C53U G61U C124U,0.752
23,G44C U78C C115G C123U,-4.64
24,G44U A50U G60C C101A C115A,-4.05

row,Variant,polymerase ribozyme fitness (log ratio)
1,G44A G47U,-2.36
2,G44U C72G U92A C115G,-5.53
3,G44A C72G C114A A121U G127C,-2.5
4,G44A C99U,-4.58
5,G45A C70G G110A,-6.64
6,G45A G52U U130G,-1.91
7,G44C A111G,-0.351
8,G45A G69A U87A U125A,-3.37
9,G44U C89A,0.219
10,G44U U106G A119G,-1.15
11,G45A C73U,-1.34
12,G45C A118G A121U,-1.69
13,G44C A83G A111C,-2.73
14,G44U A91U,-2.13
15,G45A U67A C102A G120A,-6.86
16,G44A U130C,-0.447
17,G44A G71U,-1.33
18,G44A G45U G93A,-3.07
19,G44A C73A U87G,-0.428
20,G44C C102A G120U,-4.59
21,G45A C70G,-3.56
22,G45A C70A,-1.89
23,G44U G61U G110U,-1.97
24,G44U G120U U131A,-1.89

row,Variant,polymerase ribozyme fitness (log ratio)
1,G44U A68G U92A A119U C124U,-6.31
2,G45A C102A G122A,-3.14
3,G44C G120C,-0.584
4,G44C U106C,-0.754
5,G44U G63C,-1.66
6,G44U G63A,-1.62
7,G44A U54A C62A U106A,-3.38
8,G44U A46U G71U C114G U132A,-4.18
9,G44U U133G,-1.78
10,G44A U78G,-1.09
11,G45A C97U,-2.83
12,G44A C72A,-0.836
13,G45A G52U C79U A95C A121C,-0.812
14,G45A C53G U59G C104A U112A,-0.739
15,G44A G51A C80U C86A C124G,-0.462
16,G44A G61C U78C C79G U112G U133G,-3.14
17,G45C C62G G93U,-5.04
18,G44C C56G G69U,-2.28
19,G44U U109A,-5.43
20,G45A G51A C72U,-3.6
21,G44A C72U A84U,-1.47
22,G44A G60U A108U C115A A121U,-4.86
23,G44C G60A,-1.01
24,G44C G63A C85U G110C,-7.22

row,Variant,polymerase ribozyme fitness (log ratio)
1,G45A C85U,-1.45
2,G44U G57A C94G,-3.86
3,G44A G69A C94U,-4.26
4,G44A C72G C97U G113U G117A,-6.18
5,G44A G117U,-3.1
6,G45C,-1.57
7,G45A,-0.788
8,G44C C73U U112G G120U G127C,-5.16
9,G44C A95G A118G,-1.3
10,G45A C88A U112G,-0.116
11,G45A U54A C56U G57U U87G A91G G93A,-3.65
12,G45A C64U A83G U96G G122A,-2.56
13,G45A U130C,-1.02
14,G44U G117A,-2.13
15,G45A C89G U116G,-4.12
16,G45A A100U,-2.26
17,G44C G58C A121G,1.21
18,G44C G58C U59C U96A,-1.98
19,G44U C64G C101G A121U,-6.22
20,G44U G45C C62U,-3.45
21,G45A G135U,-1.9
22,G44U U87C U106C,-1.29
23,G45A G69A U109G A118C,-6.05
